In paper PMC10792529 (Proteins, 2023) one finds stoichiometry N data, which are given here for 1 substance.

The target of this assay is wild-type Ralstonia solanacearum Isocyanide Hydratase (Ralstonia solanacearum). Nature of the assay: crystal structure.

In general, stoichiometry N refers to the number of molecules, sites or subunits per partner or assembly. In the case of “wild-type Ralstonia solanacearum Isocyanide Hydratase (enzyme)”, the stoichiometry N turned out to be 2.
